US20140087995A1 (published 2014)
Numbered stars: 1 amine (or outer) side, 2 acyl side, 3 side chain; on linkers, the order of the positions; unused ones are H or OH. Bridge positions count the residues as written; N and C are the ends. Side chains are listed from the residue outwards. Ends that are not written are not given here. * marks the point of attachment. C20 diacid = O=C(O)CCCCCCCCCCCCCCCCCCC(=O)*; γGlu = O=C(O)[C@H](CCC(=O)[*:2])N[*:1]

Legend:
[1] = molecular target: T1, human amylin receptor (amylin 3(a) receptor: human calcitonin receptor plus RAMP-3) (human, UniProt P30988 25-474; O60896 24-148); assay: cell-based or functional assay
T1 sequence (looked up) 1: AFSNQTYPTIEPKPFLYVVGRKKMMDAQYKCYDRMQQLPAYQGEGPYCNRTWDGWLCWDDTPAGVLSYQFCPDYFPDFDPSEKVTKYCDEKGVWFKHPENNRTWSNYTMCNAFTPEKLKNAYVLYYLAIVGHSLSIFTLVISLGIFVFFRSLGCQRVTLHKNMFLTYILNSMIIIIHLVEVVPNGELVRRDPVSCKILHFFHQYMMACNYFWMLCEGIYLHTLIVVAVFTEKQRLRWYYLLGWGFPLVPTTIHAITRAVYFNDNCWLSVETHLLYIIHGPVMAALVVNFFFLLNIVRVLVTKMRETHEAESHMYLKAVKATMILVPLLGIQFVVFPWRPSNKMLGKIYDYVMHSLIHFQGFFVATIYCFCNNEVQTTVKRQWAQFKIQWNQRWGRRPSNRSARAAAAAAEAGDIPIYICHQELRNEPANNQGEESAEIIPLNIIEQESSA
T1 sequence (looked up) 2: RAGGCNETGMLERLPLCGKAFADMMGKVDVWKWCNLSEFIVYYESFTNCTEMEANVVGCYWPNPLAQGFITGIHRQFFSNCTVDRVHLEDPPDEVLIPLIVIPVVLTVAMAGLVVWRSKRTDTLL

[2] = molecular target: T2, human calcitonin receptor (human, UniProt P30988 25-474); assay: cell-based or functional assay
T2 sequence (looked up): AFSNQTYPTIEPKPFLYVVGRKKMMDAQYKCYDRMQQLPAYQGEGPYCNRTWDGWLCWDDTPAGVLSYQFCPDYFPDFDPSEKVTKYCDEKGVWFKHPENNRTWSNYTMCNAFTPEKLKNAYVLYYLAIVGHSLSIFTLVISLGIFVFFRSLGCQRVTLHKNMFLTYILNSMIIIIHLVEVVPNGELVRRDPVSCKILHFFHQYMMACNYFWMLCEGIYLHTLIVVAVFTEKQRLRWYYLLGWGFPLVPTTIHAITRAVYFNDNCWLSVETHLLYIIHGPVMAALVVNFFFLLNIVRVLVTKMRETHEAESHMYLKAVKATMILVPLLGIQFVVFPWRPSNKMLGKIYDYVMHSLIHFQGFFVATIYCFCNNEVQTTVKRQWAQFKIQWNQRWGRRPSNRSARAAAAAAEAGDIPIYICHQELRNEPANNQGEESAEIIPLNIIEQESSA

[3] = molecular target: T1, human amylin receptor (amylin 3(a) …); assay: SPA competition binding, displacement of 125I-rat amylin, membranes of BHK amylin 3(a)/CRE-luc cells
How it was run: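 Cell membranes were prepared by homogenisation in Na-HEPES/EDTA buffer, pH 7.4, and stored at −80° C. They were then coupled to SPA beads at 35 ng/μL final and exposed to compounds in assay buffer containing CaCl2, MgCl₂, OA and Tween20. After 120 min at 25° C, plates were counted and IC₅₀ derived.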

Row | Binder | Ratio hCT/hAmylin funct. [1] | hAmylin-R funct. EC50 (pM) [1] [pM] | hCTR funct. EC50 (pM) [2] [pM] | IC50 [3] [nM]
1 | K([γGlu-C20 diacid])CNTATCATQRLANFLRHSSPNFGAIPSSTNVGSETY-NH2 (disulfide 2-7; N-terminus assumed; SMILES CC[C@H](C)[C@H](NC(=O)[C@H](C)NC(=O)CNC(=O)[C@H](Cc1ccccc1)NC(=O)[C@H](CC(N)=O)NC(=O)[C@@H]1CCCN1C(=O)[C@H](CO)NC(=O)[C@H](CO)NC(=O)[C@H](Cc1c[nH]cn1)NC(=O)[C@H](CCCNC(=N)N)NC(=O)[C@H](CC(C)C)NC(=O)[C@H](Cc1ccccc1)NC(=O)[C@H](CC(N)=O)NC(=O)[C@H](C)NC(=O)[C@H](CC(C)C)NC(=O)[C@H](CCCNC(=N)N)NC(=O)[C@H](CCC(N)=O)NC(=O)[C@@H](NC(=O)[C@H](C)NC(=O)[C@@H]1CSSC[C@H](NC(=O)[C@@H](N)CCCCNC(=O)CC[C@H](NC(=O)CCCCCCCCCCCCCCCCCCC(=O)O)C(=O)O)C(=O)N[C@@H](CC(N)=O)C(=O)N[C@@H]([C@@H](C)O)C(=O)N[C@@H](C)C(=O)N[C@@H]([C@@H](C)O)C(=O)N1)[C@@H](C)O)C(=O)N1CCC[C@H]1C(=O)N[C@@H](CO)C(=O)N[C@@H](CO)C(=O)N[C@H](C(=O)N[C@@H](CC(N)=O)C(=O)N[C@H](C(=O)NCC(=O)N[C@@H](CO)C(=O)N[C@@H](CCC(=O)O)C(=O)N[C@H](C(=O)N[C@@H](Cc1ccc(O)cc1)C(N)=O)[C@@H](C)O)C(C)C)[C@@H](C)O, also called compound 27) [N^ε1-[(4S)-4-carboxy-4-(19-carboxynonadecanoylamino)butanoyl]-[Arg17,Pro21,Pro27,Glu35]-h-amylin] | 22.6 | 133 | 3000 | 0.837
2 | K([γGlu-C20 diacid])CNTATCATQRLANFLRHSSPNFGAIPSSTNVGSHTY-NH2 (disulfide 2-7; N-terminus assumed; SMILES CC[C@H](C)[C@H](NC(=O)[C@H](C)NC(=O)CNC(=O)[C@H](Cc1ccccc1)NC(=O)[C@H](CC(N)=O)NC(=O)[C@@H]1CCCN1C(=O)[C@H](CO)NC(=O)[C@H](CO)NC(=O)[C@H](Cc1c[nH]cn1)NC(=O)[C@H](CCCNC(=N)N)NC(=O)[C@H](CC(C)C)NC(=O)[C@H](Cc1ccccc1)NC(=O)[C@H](CC(N)=O)NC(=O)[C@H](C)NC(=O)[C@H](CC(C)C)NC(=O)[C@H](CCCNC(=N)N)NC(=O)[C@H](CCC(N)=O)NC(=O)[C@@H](NC(=O)[C@H](C)NC(=O)[C@@H]1CSSC[C@H](NC(=O)[C@@H](N)CCCCNC(=O)CC[C@H](NC(=O)CCCCCCCCCCCCCCCCCCC(=O)O)C(=O)O)C(=O)N[C@@H](CC(N)=O)C(=O)N[C@@H]([C@@H](C)O)C(=O)N[C@@H](C)C(=O)N[C@@H]([C@@H](C)O)C(=O)N1)[C@@H](C)O)C(=O)N1CCC[C@H]1C(=O)N[C@@H](CO)C(=O)N[C@@H](CO)C(=O)N[C@H](C(=O)N[C@@H](CC(N)=O)C(=O)N[C@H](C(=O)NCC(=O)N[C@@H](CO)C(=O)N[C@@H](Cc1c[nH]cn1)C(=O)N[C@H](C(=O)N[C@@H](Cc1ccc(O)cc1)C(N)=O)[C@@H](C)O)C(C)C)[C@@H](C)O, also called compound 60) [N^ε1-[(4S)-4-carboxy-4-(19-carboxynonadecanoylamino)butanoyl]-[Arg17,Pro21,Pro27,His35]-h-amylin] | 15.3 | 351 | 5360 | 0.695

Continued, values first:

Row | Ratio hCT/hAmylin funct. [1] | hAmylin-R funct. EC50 (pM) [1] [pM] | hCTR funct. EC50 (pM) [2] [pM] | IC50 [3] [nM] | Binder
3 | 3.9 | 288 | 1120 | 0.196 | K([γGlu-C20 diacid])CNTATCATQRLADFLRHSSPNFGAIPSSTNVGPETY-NH2 (disulfide 2-7; N-terminus assumed; SMILES CC[C@H](C)[C@H](NC(=O)[C@H](C)NC(=O)CNC(=O)[C@H](Cc1ccccc1)NC(=O)[C@H](CC(N)=O)NC(=O)[C@@H]1CCCN1C(=O)[C@H](CO)NC(=O)[C@H](CO)NC(=O)[C@H](Cc1c[nH]cn1)NC(=O)[C@H](CCCNC(=N)N)NC(=O)[C@H](CC(C)C)NC(=O)[C@H](Cc1ccccc1)NC(=O)[C@H](CC(=O)O)NC(=O)[C@H](C)NC(=O)[C@H](CC(C)C)NC(=O)[C@H](CCCNC(=N)N)NC(=O)[C@H](CCC(N)=O)NC(=O)[C@@H](NC(=O)[C@H](C)NC(=O)[C@@H]1CSSC[C@H](NC(=O)[C@@H](N)CCCCNC(=O)CC[C@H](NC(=O)CCCCCCCCCCCCCCCCCCC(=O)O)C(=O)O)C(=O)N[C@@H](CC(N)=O)C(=O)N[C@@H]([C@@H](C)O)C(=O)N[C@@H](C)C(=O)N[C@@H]([C@@H](C)O)C(=O)N1)[C@@H](C)O)C(=O)N1CCC[C@H]1C(=O)N[C@@H](CO)C(=O)N[C@@H](CO)C(=O)N[C@H](C(=O)N[C@@H](CC(N)=O)C(=O)N[C@H](C(=O)NCC(=O)N1CCC[C@H]1C(=O)N[C@@H](CCC(=O)O)C(=O)N[C@H](C(=O)N[C@@H](Cc1ccc(O)cc1)C(N)=O)[C@@H](C)O)C(C)C)[C@@H](C)O)
4 | 6.5 | 421 | 2740 | 0.232 | K([γGlu-C20 diacid])CNTATCATQRLAEFLRHSSPNFGAIPSSTNVGRETY-NH2 (disulfide 2-7; N-terminus assumed; SMILES CC[C@H](C)[C@H](NC(=O)[C@H](C)NC(=O)CNC(=O)[C@H](Cc1ccccc1)NC(=O)[C@H](CC(N)=O)NC(=O)[C@@H]1CCCN1C(=O)[C@H](CO)NC(=O)[C@H](CO)NC(=O)[C@H](Cc1c[nH]cn1)NC(=O)[C@H](CCCNC(=N)N)NC(=O)[C@H](CC(C)C)NC(=O)[C@H](Cc1ccccc1)NC(=O)[C@H](CCC(=O)O)NC(=O)[C@H](C)NC(=O)[C@H](CC(C)C)NC(=O)[C@H](CCCNC(=N)N)NC(=O)[C@H](CCC(N)=O)NC(=O)[C@@H](NC(=O)[C@H](C)NC(=O)[C@@H]1CSSC[C@H](NC(=O)[C@@H](N)CCCCNC(=O)CC[C@H](NC(=O)CCCCCCCCCCCCCCCCCCC(=O)O)C(=O)O)C(=O)N[C@@H](CC(N)=O)C(=O)N[C@@H]([C@@H](C)O)C(=O)N[C@@H](C)C(=O)N[C@@H]([C@@H](C)O)C(=O)N1)[C@@H](C)O)C(=O)N1CCC[C@H]1C(=O)N[C@@H](CO)C(=O)N[C@@H](CO)C(=O)N[C@H](C(=O)N[C@@H](CC(N)=O)C(=O)N[C@H](C(=O)NCC(=O)N[C@@H](CCCNC(=N)N)C(=O)N[C@@H](CCC(=O)O)C(=O)N[C@H](C(=O)N[C@@H](Cc1ccc(O)cc1)C(N)=O)[C@@H](C)O)C(C)C)[C@@H](C)O)
